Experimental data: publication PMC12240383, “Human herpesvirus 6B glycoprotein B postfusion structure, vulnerability mapping, and receptor recognition” (PLOS Pathogens, 2025)

T1: HHV-6B gB ectodomain (residues 1-680, strain Z29) with fusion loop substitutions, C-terminal Flag-tag (Human herpesvirus 6B (strain Z29), UniProt P36320 20-680, VGVV102-105 to HRTT | WLY187-189 to ATH)
T1 construct: signal peptide in the construct (predicted signal peptide residues 1-19); glycoprotein B of human herpesvirus 6B strain Z29, ectodomain residues 1-680; Same ectodomain as m1 (a trimer in the structure) with a Flag-tag instead of the His-tag; also called HHV-6B gB-Flag; wild-type HHV-6B gB-Flag; source: Expi293F, transiently transfected, purified from supernatant (Flag beads, 3xFlag peptide …)
T1 sequence: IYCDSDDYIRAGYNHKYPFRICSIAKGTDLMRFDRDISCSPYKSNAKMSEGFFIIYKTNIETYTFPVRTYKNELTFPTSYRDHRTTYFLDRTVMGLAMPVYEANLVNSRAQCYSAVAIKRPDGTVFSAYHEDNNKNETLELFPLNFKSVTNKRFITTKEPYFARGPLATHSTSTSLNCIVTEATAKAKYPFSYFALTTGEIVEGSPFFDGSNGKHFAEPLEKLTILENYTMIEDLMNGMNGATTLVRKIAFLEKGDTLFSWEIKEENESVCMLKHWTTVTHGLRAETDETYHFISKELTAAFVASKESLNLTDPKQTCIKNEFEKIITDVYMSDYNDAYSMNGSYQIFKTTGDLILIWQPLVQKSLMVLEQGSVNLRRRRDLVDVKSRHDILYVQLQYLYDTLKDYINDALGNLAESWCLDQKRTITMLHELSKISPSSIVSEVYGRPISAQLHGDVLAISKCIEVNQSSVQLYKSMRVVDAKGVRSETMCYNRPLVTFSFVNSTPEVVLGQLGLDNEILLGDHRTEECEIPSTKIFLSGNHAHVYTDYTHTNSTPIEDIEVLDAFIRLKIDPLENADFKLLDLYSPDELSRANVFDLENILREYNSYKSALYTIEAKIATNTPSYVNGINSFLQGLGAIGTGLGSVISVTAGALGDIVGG

B1: HHV-6B gB ectodomain (residues 1-680, strain Z29) with fusion loop substitutions, C-terminal His-tag (domain or fragment)
chain: T1 sequence
notes: signal peptide in the construct (predicted signal peptide residues 1-19); glycoprotein B of human herpesvirus 6B strain Z29, ectodomain residues 1-680; furin site 396RRRR|D400 not mutated, mostly uncleaved; also called HHV-6B gB-His; HHV-6B gB680-mut; source: Expi293F, transiently transfected, purified from supernatant (Ni Sepharose IMAC, Superdex 200 SEC); not shown: His6, C-terminal, kept
B2: human nectin-2 V-set domain (residues 1-158) fused with the Fc region of human IgG (Fc fusion)
chain: QDVRVQVLPEVRGQLGGTVELPCHLLPPVPGLYISLVTWQRPDAPANHQNVAAFHPKMGPSFPSPKPGSERLSFVSAKQSTGQDTEAELQDATLALHGLTVEDEGNYTCEFATFPKGSVRGMTWLRV
notes: signal peptide in the construct; human nectin cell adhesion molecule 2 (nectin-2), V-set domain, residues 1-158; also called V-set-Fc; source: Expi293F, transiently transfected, purified from supernatant (protein G resin, SEC)

Key:
[1] = target: the molecule itself; assay: cryo-EM structure; HHV-6B gB-His at 10 mg/ml in PBS with 0.1% DDM; single-particle analysis, C3 symmetry applied, 2.8 Å; postfusion trimer
[2] = target: T1, HHV-6B gB ectodomain (residues 1-680, …); assay: co-IP; purified proteins: 4 µg V-set-Fc with 8 µg HHV-6B gB (His- or Flag-tagged), 4°C 2 h, protein G beads overnight at 4°C; six washes in 50 mM HEPES pH 7.4, 150 mM NaCl, 5 mM EDTA, 0.5% NP40; immunoblot with anti-human IgG and anti-His or anti-Flag; conditions: both partners purified
[3] = target: B1; assay: as above; conditions: both partners purified

B1
stoichiometry N [1]: 3

B2
binding result [2]: binds
binding result [3]: binds
